# Data as given in publication PMC5700975.
# B1: GST-Rab5 wild-type [canine] / Myc3-iSH2-p110β (wild type) [bovine | human] (parent)
# chain 1: LYEDYTRTSQEIQMKRTAIEAFNETIKIFEEQCQTQERYSKEYIEKFKREGNETEIQRIMHNYEKLKSRISEIVDSRRRLEEDLKKQAAEYREIDKRMNSIKGGGGGGGMCFSFIMPPAMADILDIWAVDSQIASDGSIPVDFLLPTGIYIQLEVPREATISYIKQMLWKQVHNYPMFNLLMDIDSYMFACVNQTAVYEELEDETRRLCDVRPFLPVLKLVTRSCDPGEKLDSKIGVLIGKGLHEFDSLKDPEVNEFRRKMRKFSEEKILSLVGLSWMDWLKQTYPPEHEPSIPENLEDKLYGGKLIVAVHFENCQDVFSFQVSPNMNPIKVNELAIQKRLTIHGKEDEVSPYDYVLQVSGRVEYVFGDHPLIQFQYIRNCVMNRALPHFILVECCKIKKMYEQEMIAIEAAINRNSSNLPLPLPPKKTRIISHVWENNNPFQIVLVKGNKLNTEETVKVHVRAGLFHGTELLCKTIVSSEVSGKNDHIWNEPLEFDINICDLPRMARLCFAVYAVLDKVKTKKSTKTINPSKYQTIRKAGKVHYPVAWVNTMVFDFKGQLRTGDIILHSWSSFPDELEEMLNPMGTVQTNPYTENATALHVKFPENKKQPYYYPPFDKIIEKAAEIASSDSANVSSRGGKKFLPVLKEILDRDPLSQLCENEMDLIWTLRQDCREIFPQSLPKLLLSIKWNKLEDVAQLQALLQIWPKLPPREALELLDFNYPDQYVREYAVGCLRQMSDEELSQYLLQLVQVLKYEPFLDCALSRFLLERALGNRRIGQFLFWHLRSEVHIPAVSVQFGVILEAYCRGSVGHMKVLSKQVEALNKLKTLNSLIKLNAVKLNRAKGKEAMHTCLKQSAYREALSDLQSPLNPCVILSELYVEKCKYMDSKMKPLWLVYNNKVFGEDSVGVIFKNGDDLRQDMLTLQMLRLMDLLWKEAGLDLRMLPYGCLATGDRSGLIEVVSTSETIADIQLNSSNVAAAAAFNKDALLNWLKEYNSGDDLDRAIEEFTLSCAGYCVASYVLGIGDRHSDNIMVKKTGQLFHIDFGHILGNFKSKFGIKRERVPFILTYDFIHVIQQGKTGNTEKFGRFRQCCEDAYLILRRHGNLFITLFALMLTAGLPELTSVKDIQYLKDSLALGKSEEEALKQFKQKFDEALRESWTTKVNWMAHTVRKDYRS
# chain 2: ANRGATRPNGPNTGNKICQFKLVLLGESAVGKSSLVLRFVKGQFHEFQESTIGAAFLTQTVCLDDTTVKFEIWDTAGQERYHSLAPMYYRGAQAAIVVYDITNEESFARAKNWVKELQRQASPNIVIALSGNKADLANKRAVDFQEAQSYADDNSLLFMETSAKTSMNVNEIFMAIAKKLPKNEPQNPGANSARGRGVDLTEPTQPTRSQCCSN
# Variants of: B1
# Assay: GST pull-down (summary table)
# Details: with Myc3-iSH2-p110β (wild type) [bovine | human]; n=7; parent: 100
row,percent of parent,Variant
1,< 25 % binding,chain 2 Q78L
2,< 25 % binding,chain 2 Y88A

# Variants of: B1
# Assay: GST pull-down, anti-Myc immunoblot quantification
# Details: with Myc3-iSH2-p110β (wild type) [bovine | human]; GST-Rab5 fusion proteins (10 µg) on glutathione Sepharose beads, GppCp-loaded; Myc-iSH2-p110β from transfected COS-1 lysates; parent: 100; read off a plot
row,percent of parent,Variant
1,20 % WT,chain 2 Q78L

# Variants of: B1
# Assay: GST pull-down (summary table)
# Details: with Myc3-iSH2-p110β (wild type) [bovine | human]; n=5; parent: 100
row,percent of parent,Variant
1,< 25 % binding,chain 2 W73A
2,< 25 % binding,chain 2 M87A
3,< 25 % binding,chain 2 F56A

# Same assay, conditions: with Myc3-iSH2-p110β (wild type) [bovine | human]; n=6; parent: 100
row,percent of parent,Variant
1,< 25 % binding,chain 2 Y81A

# Same assay, conditions: with Myc3-iSH2-p110β (wild type) [bovine | human]; n=8; parent: 100
row,percent of parent,Variant
1,< 25 % binding,chain 2 R80E

# Same assay, conditions: with Myc3-iSH2-p110β (wild type) [bovine | human]; n=10; parent: 100
row,percent of parent,Variant
1,< 25 % binding,chain 2 L84A

# Same assay, conditions: with Myc3-iSH2-p110β (wild type) [bovine | human]; n=4; parent: 100
row,percent of parent,Variant
1,< 25 % binding,chain 2 I52A
2,< 25 % binding,chain 2 R90E

# Same assay, conditions: with Myc3-iSH2-p110β (wild type) [bovine | human]; n=9; parent: 100
row,percent of parent,Variant
1,< 25 % binding,chain 2 E79R
2,< 25 % binding,chain 2 H82E
